Results from article doi:10.1101/706143.

Legend:
[1] = target: Cas7 (V. cholerae Type I-F variant CRISPR-Cas system) (V. cholerae); test: cryo-EM structure
[2] = target: TniQ (transposition protein of the Vibrio cholerae Tn6677 transposon) (V. cholerae); test: cryo-EM structure

Substance “Cas7 (V. cholerae Type I-F variant CRISPR-Cas system) (natural protein)” has a stoichiometry N [1] of 6.
“TniQ (transposition protein of the Vibrio cholerae Tn6677 transposon) (natural protein)” showed a stoichiometry N [2] of 2.
